Test [1] deals with T1, human PD-L1 on CHO-K1-huPD-L1 cells (human, UniProt Q9NZQ7 19-290). The test can be described thus: cell-based or functional assay.
Test [2] concerns the target T2, recombinant human PD-L1 protein (Item No. 10084-H08H, Sino Biological) (human, UniProt Q9NZQ7 19-238).
T2 construct: Bought protein; also called huPD-L1; human PD-L1 antigen
The test can be described thus: SPR, humanization screening. In general terms: Surface plasmon resonance follows binding to a sensor surface in real time, without labels.

Test [3] addresses T2, recombinant human PD-L1 protein (Item …). Kind of test: ELISA, humanization screening.
Test [4] addresses T1, human PD-L1 on CHO-K1-huPD-L1 cells. The test can be described thus: flow cytometry on CHO-K1-huPD-L1 cells; parent chimeric antibody. The procedure: CHO-K1-huPD-L1 cells overexpressing human PD-L1 were plated in a 96-well plate at 2×10⁴/well, and the 3-fold serial gradient dilutions of the samples to be tested were added at 20 μl/well, and co-incubated with the cells at room temperature for 30 min. The cells were washed by centrifugation to remove unbound antibodies, and 20 μl of R-Phycoerythrin AffiniPure Goat Anti-Human IgG, Fcγ Fragment Specific (Item No.: 109-115-098, Jackson ImmunoResearch; diluted with 1% (w/v) BSA-PBS at 1:200) fluorescent secondary antibodies were added to each well, and incubated for 15 min. The cells were then washed twice, resuspended in 100 μl of 1% (w/v) BSA-PBS, and detected for their fluorescence intensity at 585 nm by flow cytometry (BD, FACS Cantoll) under 488 nm excitation.
On the technique in general: A flow cytometer gives signals particle by particle.

For test [5], the target named is T3, human PD-L1-moFc recombinant protein (human).
T3 construct: also called free PD-L1
T3 sequence (chain, as listed by the source limits assumed): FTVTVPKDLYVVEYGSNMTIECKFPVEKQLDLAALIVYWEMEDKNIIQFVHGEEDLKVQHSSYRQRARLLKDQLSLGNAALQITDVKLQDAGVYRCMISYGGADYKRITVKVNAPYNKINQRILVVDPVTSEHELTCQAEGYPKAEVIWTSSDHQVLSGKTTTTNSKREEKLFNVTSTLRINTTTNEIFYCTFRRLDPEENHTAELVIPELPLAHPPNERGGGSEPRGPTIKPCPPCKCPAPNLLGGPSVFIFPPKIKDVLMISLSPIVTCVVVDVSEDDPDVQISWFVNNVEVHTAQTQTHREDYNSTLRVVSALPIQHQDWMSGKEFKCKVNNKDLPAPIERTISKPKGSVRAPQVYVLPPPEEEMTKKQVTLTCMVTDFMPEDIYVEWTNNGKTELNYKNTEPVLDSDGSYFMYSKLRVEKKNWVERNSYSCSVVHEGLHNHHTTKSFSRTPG
Kind of test: flow cytometry, blocking of PD-L1-moFc binding to CHO-K1-huPD-1 cells. The procedure:
The antibodies to be tested were diluted with 3-fold gradient, added at 20 μL/well into the 96-well plate with the antigen added, mixed well, and incubated at room temperature for 15 min. CHO-K1-huPD-1 cells overexpressing human PD-1 were added at 2×10⁴/well into the 96-well plate pre-incubated with antigen-antibody, mixed well, and incubated at room temperature for 15 min. The mixture was centrifuged at 300 g for 5 min, the supernatant was removed, and the cells were washed twice with FACS buffer. Anti-moFc-Alexa 488 (Item No.: 115-545-071, Jackson) secondary antibodies were diluted at 1:300, added, mixed well, and incubated at room temperature for 15 min. The cells were washed three times and measured on instrument for the fluorescence intensity on their surfaces.

Test [6] addresses T2, recombinant human PD-L1 protein (Item …). Kind of test: SPR, Biacore 8K, antibody captured as ligand, PD-L1 analyte, 1:1 model.
Test [7] shares this target. Kind of test: SPR, Biacore 8K, antibody captured on anti-human chip, huPD-L1 analyte, 1:1 model. As for the experimental part: The Anti-Human Capture-CM5 chips (Item No.: BR-1005-30, GE) were prepared according to the coupling method of the Human Antibody Captrue Kit (Item No.: BR-1008-39, GE) and the amino coupling kit (Item No.: BR-1000-50, GE). The chips were equilibrated at room temperature for 20-30 min and assembled into the Biacore 8K instrument. B5D1 was diluted to the experimental working concentration with the equilibrium buffer. The antigen was diluted to 50 nM with the equilibrium buffer, and then diluted to give samples with 7 concentration gradients by 3× serial dilution, and 2 samples with zero concentration (i.e. the equilibrium buffer) and a duplicate sample with one concentration (typically, a duplicate sample with the minimum concentration) were set. According to the antibody, the antigen huPD-L1 (Item No.: 10084-H08H, Sino Biological), and the regeneration order, the samples with 10 antigen concentrations (2 with zero concentration, 7 with gradient concentrations and 1 with duplicate concentration) were subject to experimental analysis with an antigen injection flow rate of 30 μl/min, the binding time of 120 seconds, and the dissociation time of 600 seconds.

T2 sequence (Q9NZQ7 19-238 limits assumed): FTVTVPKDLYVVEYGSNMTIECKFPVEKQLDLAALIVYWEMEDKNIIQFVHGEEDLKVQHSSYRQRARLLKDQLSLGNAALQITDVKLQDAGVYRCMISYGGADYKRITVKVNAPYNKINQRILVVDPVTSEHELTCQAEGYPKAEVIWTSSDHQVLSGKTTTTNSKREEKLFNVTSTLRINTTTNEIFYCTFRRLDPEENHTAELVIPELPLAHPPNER
T1 sequence (Q9NZQ7 19-290): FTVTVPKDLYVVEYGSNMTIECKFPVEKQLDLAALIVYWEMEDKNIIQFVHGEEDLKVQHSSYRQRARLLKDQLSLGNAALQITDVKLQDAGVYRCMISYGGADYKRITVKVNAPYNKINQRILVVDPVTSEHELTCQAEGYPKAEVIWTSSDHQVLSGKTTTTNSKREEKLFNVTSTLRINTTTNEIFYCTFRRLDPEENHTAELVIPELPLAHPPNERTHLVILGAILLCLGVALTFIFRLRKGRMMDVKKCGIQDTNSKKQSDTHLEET

B1: chimeric antibody 900245 (antibody, V domains shown)
VH: QIQLQQSGPELVKPGASVKISCKASGYTFTDYYINWVKQRPGQGLEWIGWIYLGSGNAKYNEKFKGKATLTVDTSSSTAYMHLSSLTSEDSAVYFCARCVGTYWYFDVWGAGTTVTVSS
VL: QILLTQSPATMSASPGEKVTMTCSASSSVSYMHWYQQKPGSSPKPWIYDTSNVASGFPARFSGSGSGTSYSLIISSMEAEDAATYYCHQRSSYPWTFGGGTKLEIK
notes: also called parent chimeric antibody; anti-PD-L1 human-mouse chimeric antibody
One may read the Kd as the equilibrium constant for the complex coming apart. Broadly, the EC50 is the concentration needed to bring the measured effect to its halfway point. Usually IC50 stands for the concentration needed to halve the response being measured. The term koff denotes the rate constant with which the complex falls apart. As a reminder, the kon is the rate constant with which the complex forms. B1: the “EC50, T cell activation (NFAT-luciferase RLU, Jurkat-NFAT-PD-1-5B8 effector cells with CHO-K1-OS8-PD-L1-8D6 target cells)” value in test [1] worked out at 0.287 µg/mL. Moreover, the Kd in test [2] was determined as 0.72 nM; in test [6], 0.346 nM; in test [7] it was 0.0773 nM. The EC50 in test [3] was found to be 0.499 µg/mL; in test [4], 0.125 µg/mL. Also, the IC50 in test [5] amounted to 2.84 µg/mL. Further, the off-rate (koff) in test [6] was 0.000127 s⁻¹; in test [7] it was 9.54e-05 s⁻¹. Also, the values for the kon in test [6] and in test [7] were 368000 M⁻¹ s⁻¹ and 1.24e+06 M⁻¹ s⁻¹, respectively.

Source of the values: patent US20250074988A1 (SHANGHAI HUAOTA BIOPHARMACEUTICAL, published 2025).
